According to PMC12781114, “Mechanistic and Molecular Dynamics Studies Reveal that Increased Loop 3 Mobility Alters Substrate Capture in an NADH:Quinone Oxidoreductase” (Biochemistry, 2025):

Assays:
[1] = target: T1, NADH:quinone oxidoreductase (NQO-P78G) (Pseudomonas aeruginosa, UniProt Q9I4V0, P78G); test: anaerobic stopped-flow reductive half-reaction (flavin reduction at […] nm), hyperbolic fit; steady-state kinetics; format: biochemical
T1 construct: gene PA1024

[2] = system: COC1=C(OC)C(=O)C(C)=CC1=O; test: purified protein; format: biochemical, Pseudomonas aeruginosa; details: pH 6.0, 25.0 °C

T1 sequence (Q9I4V0 whole entry P78G): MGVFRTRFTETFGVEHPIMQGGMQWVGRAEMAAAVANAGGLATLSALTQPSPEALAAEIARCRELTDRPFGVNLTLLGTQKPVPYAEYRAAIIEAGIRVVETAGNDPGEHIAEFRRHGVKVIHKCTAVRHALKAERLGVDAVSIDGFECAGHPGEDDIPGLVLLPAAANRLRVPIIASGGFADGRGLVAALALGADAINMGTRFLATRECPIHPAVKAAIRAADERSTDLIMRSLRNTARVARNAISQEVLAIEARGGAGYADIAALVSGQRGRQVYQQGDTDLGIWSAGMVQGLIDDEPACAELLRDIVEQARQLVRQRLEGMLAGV

NC(=O)C1=CN([C@@H]2O[C@H](COP(=O)(O)OP(=O)(O)OC[C@H]3O[C@@H](n4cnc5c(N)ncnc54)[C@H](O)[C@@H]3O)[C@@H](O)[C@H]2O)C=CC1 [NADH] showed a Kd [1] of 450 ± 40 µM.

“NADH:quinone oxidoreductase (NQO-P78G) (Pseudomonas aeruginosa PAO1; P78G)” gave a Km ([2]; FMN active site pocket, binds the reduced enzyme (ping-pong bi-bi)) of 10 ± 1 µM.

For “NADH:quinone oxidoreductase (NQO-WT) (Pseudomonas aeruginosa PAO1)”, the Km [2] was 35 ± 6 µM.
